The target in experiment [1] is LIM protein Ajuba (human (endogenous in HTC75)) (UniProt Q96IF1). Put plainly: co-IP; IP-Western of endogenous proteins from HTC75 total extracts (also IMR90) with Ajuba serum or antibodies to RPA70, RPA32 or RPA14; cells untreated, treated with 2 mM hydroxyurea for 24 hr (association reduced) or synchronized by double thymidine block and released for 2 hr (no perceptible effect).

In experiment [2] the target is His-tagged full-length Ajuba (UniProt Q96IF1). Nature of the experiment: pull-down; His-tag pull-down on Ni-NTA beads of proteins co-translated in one rabbit reticulocyte lysate reaction with 35S-methionine; beads blocked with 2% BSA, 30 minutes at room temperature, TBST pH 8.0, six washes; autoradiography, signal normalized to input and number of methionines.

Sequence of RPA70-OB½ABC (P27694 234-612): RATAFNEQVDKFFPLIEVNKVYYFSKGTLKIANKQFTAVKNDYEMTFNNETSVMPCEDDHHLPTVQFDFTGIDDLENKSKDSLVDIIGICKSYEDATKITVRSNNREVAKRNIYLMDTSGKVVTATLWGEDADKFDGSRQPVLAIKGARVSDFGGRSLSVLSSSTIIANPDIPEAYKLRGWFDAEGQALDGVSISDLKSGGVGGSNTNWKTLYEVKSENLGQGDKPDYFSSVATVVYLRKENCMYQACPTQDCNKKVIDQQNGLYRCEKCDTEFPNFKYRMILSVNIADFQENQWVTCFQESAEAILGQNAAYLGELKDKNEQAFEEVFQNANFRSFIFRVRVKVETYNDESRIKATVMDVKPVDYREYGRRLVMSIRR

Turning to total RPA, in experiment [1], the pull down efficiency (% of total RPA in association with Ajuba) is 2 to 5%.
In turn, “RPA70-OB½ABC (from UniProt P27694 234-612) (domain or fragment)” yielded a pull down relative to full-length RPA70 (set at 100%) in experiment [2] of 58.7%.

(Values after PMC6015067.)
